The source of these data is patent US11008403 (dated 2021).

Where a chain is given by its changes, count along the chain named. Numbers in names are those of the source. Where “and” joins values, the source holds several entries; their conditions need not be identical. Identical values can stand only once.

The labels stand for the following.
T1: cyno TfR ECD (cynomolgus)
T1 chain: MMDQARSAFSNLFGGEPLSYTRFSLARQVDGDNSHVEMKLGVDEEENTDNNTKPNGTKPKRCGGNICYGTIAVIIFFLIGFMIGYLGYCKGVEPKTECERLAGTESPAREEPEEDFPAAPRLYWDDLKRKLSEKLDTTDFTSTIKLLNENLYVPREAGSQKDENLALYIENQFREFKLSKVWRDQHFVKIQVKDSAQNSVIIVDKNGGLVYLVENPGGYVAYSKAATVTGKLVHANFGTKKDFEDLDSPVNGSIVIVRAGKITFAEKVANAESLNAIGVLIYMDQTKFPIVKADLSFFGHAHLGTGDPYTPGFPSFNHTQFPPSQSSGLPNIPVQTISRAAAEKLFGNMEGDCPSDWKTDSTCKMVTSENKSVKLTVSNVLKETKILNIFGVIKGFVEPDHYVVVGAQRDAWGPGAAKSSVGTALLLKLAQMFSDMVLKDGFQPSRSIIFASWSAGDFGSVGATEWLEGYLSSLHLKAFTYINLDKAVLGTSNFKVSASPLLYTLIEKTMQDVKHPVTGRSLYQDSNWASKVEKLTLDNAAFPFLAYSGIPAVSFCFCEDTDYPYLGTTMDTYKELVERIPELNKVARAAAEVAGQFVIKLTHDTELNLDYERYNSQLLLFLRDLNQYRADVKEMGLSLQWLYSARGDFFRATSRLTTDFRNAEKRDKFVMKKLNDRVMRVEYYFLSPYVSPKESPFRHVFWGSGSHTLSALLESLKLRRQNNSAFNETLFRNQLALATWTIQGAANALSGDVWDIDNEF

T2: cyno FcRn (cynomolgus, UniProt Q8SPV9)
T2 chain 1: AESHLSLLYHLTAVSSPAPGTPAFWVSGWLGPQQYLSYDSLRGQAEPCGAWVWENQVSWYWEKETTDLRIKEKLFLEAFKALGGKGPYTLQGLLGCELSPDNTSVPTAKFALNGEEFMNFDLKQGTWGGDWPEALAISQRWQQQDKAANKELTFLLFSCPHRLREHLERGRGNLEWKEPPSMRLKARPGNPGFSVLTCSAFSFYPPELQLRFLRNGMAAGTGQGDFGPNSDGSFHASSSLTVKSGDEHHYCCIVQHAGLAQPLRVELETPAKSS
T2 chain 2: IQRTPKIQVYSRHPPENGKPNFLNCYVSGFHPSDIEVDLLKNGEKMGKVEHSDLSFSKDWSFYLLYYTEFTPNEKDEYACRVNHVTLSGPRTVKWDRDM

B1: Hu15G11.v5 Fab (antibody, V domains shown)
VH: EVQLVQSGAEVKKPGASVKVSCKASGYTFTSYWMHWVRQAPGQRLEWIGEINPTNGRTNYIEKFKSRATLTVDKSASTAYMELSSLRSEDTAVYYCARGTRAYHYWGQGTMVTVSS
VL: DIQMTQSPSSLSASVGDRVTITCRASDNLYSNLAWYQQKPGKSPKLLVYDATNLADGVPSRFSGSGSGTDYTLTISSLQPEDFATYYCQHFWGTPLTFGQGTKVEIK
B2: Hu15G11.W92A bispecific, TfR arm (antibody, V domains shown)
VH: B1 VH
VL: B1 VL with W92A
B3: Hu7G7.v1 Fab (antibody, V domains shown)
VH: EVQLVQSGAEVKKPGASVKVSCKASGYTFTSYWMHWVRQAPGQGLEWIGNIYPGSGSTKYDERFKSRVTITVDTSTSTAYLELSSLRSEDTAVYYCTRGGYDSRAWFAYWGQGTLVTVSS
VL: DIVMTQSPDSLAVSLGERATINCRARQSVSTSSYSFMHWYQQPAGQPPKLLIKYASIQESGVPDRFSGSGSGTDFTLTISSLQAEDVAVYYCQHTWEIPFTFGQGTKVEIK
B4: Mu7A4 Fab (antibody, V domains shown)
VH: QVQLQQSGPELVRPGVSVKISCKGSGYTFTDYAMHWVKQSHAKSLEWIGGISTYFGRTNYNQKFKGRATMTVDKSSSTAYMELARLTSEDSALYYCARGLSGNYVMDYWGQGTSVTVSS
VL: DIVLTQSPASLAVSLGQRATISCRASESVDSYGNSFMHWYQQKPGQPPKLLIYRASNLESGIPARFSGSGSRTDFTLTINPVEADDVATYYCQQSNEGPPTFGGGTKLEIK
B5: Mu15G11 Fab (antibody, V domains shown)
VH: QVQLQQPGAELVKPGASVKLSCKASGYTFTSYWMHWVKQRPGQGLEWIGEINPTNGRTNYIEKFKSKATLTVDKSSSTAYMQLSSLTSEDSAVYYCARGTRAYHYWGQGTSVTVSS
VL: DIQMTQSPASLSVSVGETVTITCRASDNLYSNLAWYQQKQGKSPQLLVYDATNLADGVPSRFSGSGSGTQYSLKINSLQSEDFGTYYCQHFWGTPLTFGAGTKLELK
B6: Hu7A4.v15 Fab (antibody, V domains shown)
VH: EVQLVQSGAEVKKPGASVKVSCKGSGYTFTDYAMHWVRQAPGQGLEWMGGISTYFGRTNYNQKFKGRVTMTVDTSISTAYMELSRLRSDDTAVYYCARGLSGNYVMDYWGQGTTVTVSS
VL: DIVMTQSPDSLAVSLGERATINCRASESVDSYGNSFMHWYQQKPGQPPKLLIYRASNLESGVPDRFSGSGSRTDFTLTISSLQAEDVAVYYCQQSNEAPPTFGQGTKLEIK
B7: Anti-TfR1/6266.hIgG1.N297G, TfR arm (antibody, V domains shown)
VH: B1 VH
VL: B1 VL
B8: Hu15G11.HC34A Fab (antibody, V domains shown)
VH: B1 VH with M34A
VL: B1 VL
B9: Hu15G11.HC53A Fab (antibody, V domains shown)
VH: B1 VH with T54A
VL: B1 VL
B10: Hu15G11.HC52A Fab (antiTfR.52A.Fab) (antibody, V domains shown)
VH: B1 VH with N52A
VL: B1 VL
B11: Hu15G11.HC51A Fab (antibody, V domains shown)
VH: B1 VH with I51A
VL: B1 VL
B12: antiTfR.52A.M108L.Fab (antibody, V domains shown)
VH: B1 VH with N52A, M111L
VL: B1 VL
B13: Hu15G11.HC32A Fab (antibody, V domains shown)
VH: B1 VH with Y32A
VL: B1 VL
B14: Anti-TfR2/6266.hIgG1.LALAPG.YTE, TfR arm (antibody, V domains shown)
VH: B1 VH
VL: DIQMTQSPSSLSASVGDRVTITCRASDNLYSNLAWYQQKPGKSPKLLVYDATNLADGVPSRFSGSGSGTDYTLTISSLQPEDFATYYCQHFAGTPLTFGQGTKVEIKR
B15: Anti-TfR2/6266.hIgG1.LALAPG.YTE (antibody)
chain 1: EVQLVQSGAEVKKPGASVKVSCKASGYTFTSYWMHWVRQAPGQRLEWIGEINPTNGRTNYIEKFKSRATLTVDKSASTAYMELSSLRSEDTAVYYCARGTRAYHYWGQGTMVTVSSASTKGPSVFPLAPSSKSTSGGTAALGCLVKDYFPEPVTVSWNSGALTSGVHTFPAVLQSSGLYSLSSVVTVPSSSLGTQTYICNVNHKPSNTKVDKKVEPKSCDKTHTCPPCPAPEAAGGPSVFLFPPKPKDTLYITREPEVTCVVVDVSHEDPEVKFNWYVDGVEVHNAKTKPREEQYNSTYRVVSVLTVLHQDWLNGKEYKCKVSNKALGAPIEKTISKAKGQPREPQVYTLPPSREEMTKNQVSLSCAVKGFYPSDIAVEWESNGQPENNYKTTPPVLDSDGSFFLVSKLTVDKSRWQQGNVFSCSVMHEALHNHYTQKSLSLSPGK
chain 2: DIQMTQSPSSLSASVGDRVTITCRASDNLYSNLAWYQQKPGKSPKLLVYDATNLADGVPSRFSGSGSGTDYTLTISSLQPEDFATYYCQHFAGTPLTFGQGTKVEIKRTVAAPSVFIFPPSDEQLKSGTASVVCLLNNFYPREAKVQWKVDNALQSGNSQESVTEQDSKDSTYSLSSTLTLSKADYEKHKVYACEVTHQGLSSPVTKSFNRGEC
chain 3: not shown
chain 4: not shown
B16: Anti-TfR.52A/6266.hIgG1.LALAPG (antibody)
chain 1: B15 chain 1 with N52A, Y251M, T253S, E255T
chain 2: B15 chain 2 with A92W
chain 3: not shown
chain 4: not shown
B17: Anti-TfR.52A/6266.hIgG1.LALAPG.YTE (antibody)
chain 1: B15 chain 1 with N52A
chain 2: B15 chain 2 with A92W
chain 3: not shown
chain 4: not shown
B18: Anti-TfR2/6266.hIgG1.LALAPG (antibody)
chain 1: B15 chain 1 with Y251M, T253S, E255T
chain 2: B15 chain 2
chain 3: not shown
chain 4: not shown

The target in one assay is human TfR ECD (human). Put plainly: SPR.
B1: the equilibrium dissociation constant (Kd) is 7.03 nM.
Same read-out and setting: to B2 belongs 295 nM.

Another assay addresses T1, cyno TfR ECD. Put plainly: SPR.
Take B1: the Kd came to 28.2 nM. In other words, the double-digit nanomolar range.
The molecule B2 returned a Kd of 622 nM.

The target in another assay is human TfR ECD (human). Nature of the assay: SPR. The source holds these as a separate data set.
With B1, the Kd is 4.7 nM and 8.91 nM.
Same read-out and setting: to B3 belongs 45.8 nM.
Molecule B4 registered a Kd of 0.19 nM.
B5: the Kd turned out to be 3.37 nM. This Kd lies about 18-fold higher than the previous one.
With B6, the Kd was 0.348 nM.

For another assay, the target named is human TfR ECD (human). Put plainly: SPR. The source holds these as a separate data set.
Consider B7, for which binding was characterised by a dissociation constant (Kd) of 9 nM.

The target in the next assay is T1, cyno TfR ECD. Nature of the assay: SPR. The source holds these as a separate data set.
B1 returned a Kd of 15.6 nM. This counts as double-digit nanomolar.
In turn, B3 came in with a Kd of 188 nM.
The molecule B4 yielded a Kd of 0.741 nM.
In the case of B5, the Kd was 5.81 nM and 7.57 nM.
Take B6: the Kd is 4.28 nM. That is a single-digit nanomolar value.

The next assay has as its target T1, cyno TfR ECD. Nature of the assay: SPR. This is another data set of the same source.
B8 came in with a Kd of 32.6 nM. This lies in the double-digit nanomolar range.
B1: binding was put at a Kd of 28.2 nM. The Kd values of the last two molecules are within 1.5-fold of each other.
B9 displayed a Kd of 51.8 nM. Compared with the last molecule, the Kd is about 1.8-fold higher.
The same measure, in the same setting: to B10 belongs 117 nM; to B11, 105 nM.

The target in the next assay is human TfR ECD (human). Nature of the assay: SPR. This is another data set of the same source.
Molecule B10 gave a dissociation constant Kd of 55 nM.
The molecule B12 showed a Kd of 72.2 nM. This Kd and that of the molecule before are within 1.5-fold of each other.

Another assay has as its target human TfR ECD (human). Nature of the assay: SPR. The source holds these as a separate data set.
Turning to B8, the Kd came to 7.14 nM.
As to B13, the Kd was 7.47 nM.
The molecule B1 gave a Kd of 7.03 nM.
B9 returned a Kd of 12.9 nM.
With B10, the Kd was 34.6 nM and 44.4 nM.
Regarding B11, the Kd came out at 23.9 nM.

The next assay has as its target T1, cyno TfR ECD. Nature of the assay: SPR. This is another data set of the same source.
With B7, binding was put at a Kd of 23.7 nM. That is a double-digit nanomolar value.
Consider B14, for which the Kd was 1650 nM.

A further assay has as its target human FcRn (human, UniProt P55899). Nature of the assay: SPR, pH 6.0.
B15: binding was put at a Kd of 300 nM.
For the molecule B16, binding was put at a Kd of 800 nM.
Regarding B17, the Kd turned out to be 200 nM.
B18 had a Kd of 1100 nM. Against the preceding molecule, the Kd is about 5.5-fold higher.

The target in another assay is T2, cyno FcRn. Nature of the assay: SPR, pH 6.0.
B15 showed a Kd of 200 nM. That is a sub-micromolar value.
Turning to B16, the Kd was determined as 1200 nM.
B17: the Kd stood at 200 nM.
B18 returned a Kd of 1200 nM.
